B2: biotin-conjugated recombinant FcγRIIa-H131 (receptor)
chain: AAPPKAVLKLEPPWINVLQEDSVTLTCQGARSPESDSIQWFHNGNLIPTHTQPSYRFKANNNDSGEYTCQTGQTSLSDPVHLTVLSEWLVLQTPHLEFQEGETIMLRCHSWKDKPLVKVTFFQNGKSQKFSHLDPTFSIPQANHSHSGDYHCTGNIGYTLFSSKPVTITVQVPSMGSSSPMGI
modifications: biotin-conjugated
notes: The H131 allotype name implies the human receptor

Experiment [1] deals with T1, biotin-conjugated recombinant FcγRIIIa-V158 (UniProt P08637 17-208).
T1 construct: The V158 allotype name implies the human receptor
As to the kind of experiment: ELISA, coated fusion protein, biotin-conjugated FcγR in solution.

For experiment [2], the target named is T2, biotin-conjugated recombinant FcγRIIIa-F158 (UniProt P08637 17-208, biotin-conjugated).
T2 construct: The F158 allotype name implies the human receptor
The experiment is described as above.

In experiment [3] the target is B2. Described as above.
For experiment [4], the target named is T3, recombinant ovalbumin (OVA) (Gallus gallus (Chicken), UniProt P01012 1-386).
T3 sequence: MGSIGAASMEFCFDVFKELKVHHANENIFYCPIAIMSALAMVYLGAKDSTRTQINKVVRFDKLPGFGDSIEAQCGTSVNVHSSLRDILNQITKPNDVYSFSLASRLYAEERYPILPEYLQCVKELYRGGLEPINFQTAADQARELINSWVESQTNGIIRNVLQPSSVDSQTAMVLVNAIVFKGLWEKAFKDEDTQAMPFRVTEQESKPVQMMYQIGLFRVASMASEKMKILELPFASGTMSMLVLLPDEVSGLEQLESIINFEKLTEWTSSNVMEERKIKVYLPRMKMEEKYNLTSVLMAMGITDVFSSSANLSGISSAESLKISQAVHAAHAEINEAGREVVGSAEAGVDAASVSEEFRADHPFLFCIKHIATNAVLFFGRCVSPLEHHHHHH
As to the kind of experiment: ELISA, plate coated with recombinant protein at 1 µg/mL, serial dilution of biotin-conjugated FcγR, streptavidin-HRP.

T2 sequence (P08637 17-208 limits assumed): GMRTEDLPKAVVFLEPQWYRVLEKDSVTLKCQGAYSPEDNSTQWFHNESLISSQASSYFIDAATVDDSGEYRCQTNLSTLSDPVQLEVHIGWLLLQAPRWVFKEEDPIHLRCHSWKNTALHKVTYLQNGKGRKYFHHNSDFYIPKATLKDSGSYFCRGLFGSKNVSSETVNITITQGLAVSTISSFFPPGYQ
T1 sequence (P08637 17-208 F176V limits assumed): as the sequence (P08637 17-208 limits assumed) above, with F160V counted along it

B1: OVA-FLIPr-like fusion protein (other)
chain: MGSIGAASMEFCFDVFKELKVHHANENIFYCPIAIMSALAMVYLGAKDSTRTQINKVVRFDKLPGFGDSIEAQCGTSVNVHSSLRDILNQITKPNDVYSFSLASRLYAEERYPILPEYLQCVKELYRGGLEPINFQTAADQARELINSWVESQTNGIIRNVLQPSSVDSQTAMVLVNAIVFKGLWEKAFKDEDTQAMPFRVTEQESKPVQMMYQIGLFRVASMASEKMKILELPFASGTMSMLVLLPDEVSGLEQLESIINFEKLTEWTSSNVMEERKIKVYLPRMKMEEKYNLTSVLMAMGITDVFSSSANLSGISSAESLKISQAVHAAHAEINEAGREVVGSAEAGVDAASVSEEFRADHPFLFCIKHIATNAVLFFGRCVSPGGGGSGGGGSGGGGSFFSYEWKGLEIAKNLADQAKKDDERADKLIKEADEKNEHYKGKTVEDLYVIAKKMGKGNTIAVVKIKDGGKNGYYTFDITRPLEEHRKNIPVVKNGEIDSITWYLEHHHHHH
notes: Expressed in E. coli from pET-22b(+) and purified by IMAC; also called recombinant OVA-FLIPr-like fusion protein
Take B1: the binding result in experiment [1], in experiment [2] and in experiment [3] was “binds” each time. With B2, the binding result in experiment [4] is on record as “no binding”.

B3: OVA-FLIPr fusion protein (other)
chain: MGSIGAASMEFCFDVFKELKVHHANENIFYCPIAIMSALAMVYLGAKDSTRTQINKVVRFDKLPGFGDSIEAQCGTSVNVHSSLRDILNQITKPNDVYSFSLASRLYAEERYPILPEYLQCVKELYRGGLEPINFQTAADQARELINSWVESQTNGIIRNVLQPSSVDSQTAMVLVNAIVFKGLWEKAFKDEDTQAMPFRVTEQESKPVQMMYQIGLFRVASMASEKMKILELPFASGTMSMLVLLPDEVSGLEQLESIINFEKLTEWTSSNVMEERKIKVYLPRMKMEEKYNLTSVLMAMGITDVFSSSANLSGISSAESLKISQAVHAAHAEINEAGREVVGSAEAGVDAASVSEEFRADHPFLFCIKHIATNAVLFFGRCVSPGGGGSGGGGSGGGGSFFSYEWKGLEIAKNLADQAKKDDERIDKLMKESDKNLTPYKAETVNDLYLIVKKLSQGDVKKAVVRIKDGGPRDYYTFDLTRPLEENRKNIKVVKNGEIDSIYWDLEHHHHHH
notes: Expressed in E. coli from pET-22b(+) and purified by IMAC; also called recombinant OVA-FLIPr fusion protein
B3: the binding result in experiment [1], in experiment [2] and in experiment [3] was “binds” in each case.

B4: biotin-conjugated recombinant FcγRI (receptor)
chain: QVDTTKAVITLQPPWVSVFQEETVTLHCEVLHLPGSSSTQWFLNGTATQTSTPSYRITSASVNDSGEYRCQRGLSGRSDPIQLEIHRGWLLLQVSSRVFTEGEPLALRCHAWKDKLVYNVLYYRNGKAFKFFHWNSNLTILKTNISHNGTYHCSGMGKHRYTSAGISVTVKELFPAPVLNASVTSPLLEGNLVTLSCETKLLLQRPGLQLYFSFYMGSKTLRGRNTSSEYQILTARREDSGLYWCEAATEDGNVLKRSPELELQVLGLQLPTP
modifications: biotin-conjugated
As for B4, the binding result in experiment [4] is “no binding”.

B5: biotin-conjugated recombinant FcγRIIb (receptor)
chain: APPKAVLKLEPQWINVLQEDSVTLTCRGTHSPESDSIQWFHNGNLIPTHTQPSYRFKANNNDSGEYTCQTGQTSLSDPVHLTVLSEWLVLQTPHLEFQEGETIVLRCHSWKDKPLVKVTFFQNGKSKKFSRSDPNFSIPQANHSHSGDYHCTGNIGYTLYSSKPVTITVQAP
modifications: biotin-conjugated
For B5, the binding result in experiment [4] is “no binding”.

These data come from patent publication US20190321456A1 (NATIONAL HEALTH RESEARCH INSTITUTES, published 2019).
